# Where a chain is given by its changes, count along the chain named.
# T1: human CD16b (NA1), full length, on FlpinCHO cells (human, UniProt O75015 17-200)
# T1 construct: also called FlpinCHO-human CD16b (NA1)
# T1 chain: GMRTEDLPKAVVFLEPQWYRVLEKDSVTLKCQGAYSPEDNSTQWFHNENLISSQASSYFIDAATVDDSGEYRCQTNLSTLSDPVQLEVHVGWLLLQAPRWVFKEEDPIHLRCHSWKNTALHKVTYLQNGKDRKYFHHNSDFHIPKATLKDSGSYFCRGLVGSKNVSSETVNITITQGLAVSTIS
# T2: human CD16b (NA2), full length, on FlpinCHO cells (human, UniProt O75015 17-200)
# T2 construct: also called FlpinCHO-human CD16b (NA2)
# T2 chain: T1 chain with R20S, N49S, D66N, V90I
# B1: VHH07 VHH-Fc antibody (Fc fusion)
# chain: EVQLVESGGGLVQAGGSLRLSCVASRSTLTTYAVRWYRQAPGKQREWVAFISVDGKTNYPDSVKGRFIVSRDNAKNTVYLQMNSLKPEDTADYICRAGGQYWGQGTQVTVSSEPKSSDKTHTCPPCPAPEFEGGPSVFLFPPKPKDTLMISRTPEVTCVVVAVSHEDPEVKFNWYVDGVEVHNAKTKPREEQYNSTYRVVSVLTVLHQDWLNGKEYKCKVSNKALPAPIEKTISKAKGQPREPQVYTLPPSREEMTKNQVSLTCLVKGFYPSDIAVEWESNGQPENNYKTTPPVLDSDGSFFLYSKLTVDKSRWQQGNVFSCSVMHEALHNHYTQKSLSLSPGK
# B2: VHH10 VHH-Fc antibody (Fc fusion)
# chain: B1 chain with E1Q, A24G, R26S, K56S
# B3: VHH08 VHH-Fc antibody (Fc fusion)
# chain: B1 chain with L4V, T30S, K43N, K56N
# B4: VHH09 VHH-Fc antibody (Fc fusion)
# chain: B1 chain with L4V, R26T, K56N
# Tests used:
# [1] = target: T3, human CD16a (158F), full length, on FlpinCHO cells (human, UniProt P08637 17-254); test: FACS on FlpinCHO cells
# Method: (§1) The required cells were scale-up cultured in a T-75 cell culture flask to the logarithmic growth phase. The medium was aspirated, and the cells were washed twice with a PBS buffer and then digested with trypsin. After the digestion was terminated, the cells were washed twice with the PBS buffer. The cells were counted, and then the cell pellet was resuspended with a [PBS+2% (w/w) BSA] blocking solution to 2×10⁶ cells/ml, and added to a 96-well FACS reaction plate at 50 μl/well. […] 50 μl/well of the antibody to be detected was added at different concentrations, and incubated on ice for 1 hour. […] The mixture was centrifuged and washed 5 times with PBS, and FACS (FACS Canto II, purchased from BD Company) was used for detection and result analysis. Data analysis was performed by software (CellQuest) to obtain the mean fluorescence intensity (MFI) of the cells. Then, software (GraphPad Prism8) was used for analysis, data fitting and EC50 value calculation.
# [2] = target: T4, human CD16a (158V), full length, on cells (human, UniProt P08637 17-254); test: FACS on FlpinCHO cells
# T4 construct: also used as target for the bought Jurkat-NFAT reporter line stably expressing human CD16a (158V); also called FlpinCHO-human CD16a (158V); FlpinCHO-CD16a (158V)
# Method: as §1
# [3] = target: T5, Human CD16a (158V)-his (human); test: SPR (Biacore), antibody captured on Protein A
# T5 construct: entry holds ECD, AVI tag, linker and His tag
# Method: (§2) A sample buffer and a running buffer were HBS-EP+ (10 mM HEPES, 150 mM NaCl, 3 mM EDTA and 0.05% surfactant P20) (GE Healthcare; BR-1006-69). The flow-through cell was set to 25° C. The sample block was set to 16° C. Both were pretreated with the running buffer. In each cycle, an antibody to be detected was first captured with a Protein A chip, and then a single concentration of CD16 antigen protein was injected. The binding and dissociation processes of the antibody and the antigen protein were recorded, and finally Glycine pH 1.5 (GE Healthcare; BR-1003-54) was used to complete chip regeneration. Binding was measured by injecting different concentrations of recombinant human CD16-ECD his proteins in a solution for 240 s with a flow rate of 30 μL/min, wherein a total of 5 concentrations were prepared by using 200 nM as a starting concentration (see the detailed results for the actual concentration in the test) and performing a 1:1 dilution. The dissociation phase was monitored for up to 600 s and was triggered by switching from a sample solution to a running buffer. The surface was regenerated by washing with a 10 mM glycine solution (pH 1.5) for 30 s at a flow rate of 30 μL/min. Bulk refractive index difference was corrected by subtracting the response obtained from the goat anti-human Fc surface. Blank injection was also subtracted (=double reference). For calculation of apparent KD and other kinetic parameters, Langmuir 1:1 model was used.
# [4] = target: T6, Human CD16a (158F)-his (human); test: SPR (Biacore), antibody captured on Protein A
# T6 construct: entry holds ECD, AVI tag, linker and His tag
# Method: as §2
# [5] = target: T1, human CD16b (NA1), full length, on …; test: FACS on FlpinCHO cells
# Method: as §1
# (§3) The binding of an antibody to be detected to FlpinCHO-human CD16b cells was detected according to the method of Example 3.1.
# [6] = target: T2, human CD16b (NA2), full length, on …; test: FACS on FlpinCHO cells
# Method: as §1, §3
# [7] = target: T7, CD16 on primary human NK cells (human, UniProt P08637 17-254); test: FACS on human NK cells
# T7 construct: whole, on cells; also called resting NK cells
# Method: as §1
# The binding of an antibody to be detected to freshly prepared human NK cells (Milestone Biotechnologies, catalog number: PB56-N-Custom) was detected according to the method of Example 3.1.
# [8] = target: T4, human CD16a (158V), full length, on …; test: cell-based or functional assay
# [9] = target: T3, human CD16a (158F), full length, on …; test: FACS, biotinylated antibody, +10 mg/mL human immunoglobulin
# Method: as §1, with “The” for “The required cells were scale-up cultured in a T-75 cell culture flask to the logarithmic growth phase. The”
# (§4) An antibody to be detected was labeled in advance according to the instructions of a biotin labeling kit (EZ-Link™ NHS-PEG4 Biotinylation Kit, purchased from Thermofisher Scientific, catalog number: 21455). […] Detection was performed according to the method of Example 3.1, wherein the biotinylated antibody was detected with fluorescein APC-labeled Streptavidin (High Concentration) (purchased from Biolegend, catalog number: 405243).
# [10] = target: T4, human CD16a (158V), full length, on …; test: as above
# Method: as §1, with “The” for “The required cells were scale-up cultured in a T-75 cell culture flask to the logarithmic growth phase. The”
# as §4
# [11] = target: T3, human CD16a (158F), full length, on …; test: FACS, biotinylated antibody
# Method: as §1, with “The” for “The required cells were scale-up cultured in a T-75 cell culture flask to the logarithmic growth phase. The”
# as §4
# [12] = target: T4, human CD16a (158V), full length, on …; test: FACS, biotinylated antibody
# Method: as §1, with “The” for “The required cells were scale-up cultured in a T-75 cell culture flask to the logarithmic growth phase. The”
# as §4
Binder,EC50 [1],Maximum mean fluorescence intensity [1],EC50 [2],Maximum mean fluorescence intensity [2],Kd [3],koff [3],kon [3],Kd [4],koff [4],kon [4],EC50 [5],Maximum mean fluorescence intensity [5],Maximum mean fluorescence intensity [6],binding result [6],"EC50, activation activity for Jurkat cell [8]",Maximum fluorescence value [8],EC50 [9],Maximum mean fluorescence intensity [9],EC50 [10],Maximum mean fluorescence intensity [10],also measured
B1,0.25 nM,5190,0.32 nM,5970,22.7 nM,0.00249 s⁻¹,110000 M⁻¹ s⁻¹,67.2 nM,0.00451 s⁻¹,67200 M⁻¹ s⁻¹,0.35 nM,52900,113,no binding (tested: 100 nM),0.02 nM,174000,0.87 nM,5520,0.85 nM,7900,EC50 [7]: 0.22 nM; Maximum mean fluorescence intensity [7]: 2330; EC50 [11]: 0.24 nM; Maximum mean fluorescence intensity [11]: 4160; EC50 [12]: 0.22 nM; Maximum mean fluorescence intensity [12]: 5970
B2,0.44 nM,5620,0.63 nM,6480,13.6 nM,0.00146 s⁻¹,107000 M⁻¹ s⁻¹,39.9 nM,0.00247 s⁻¹,61800 M⁻¹ s⁻¹,0.34 nM,51400,140,no binding (tested: 100 nM),0.02 nM,157000,1.2 nM,6040,1.39 nM,9200,EC50 [7]: 0.45 nM; Maximum mean fluorescence intensity [7]: 2450; EC50 [11]: 0.31 nM; Maximum mean fluorescence intensity [11]: 4690; EC50 [12]: 0.42 nM; Maximum mean fluorescence intensity [12]: 6980
B3,0.56 nM,4240,0.81 nM,4710,22.1 nM,0.00266 s⁻¹,120000 M⁻¹ s⁻¹,80.5 nM,0.00559 s⁻¹,69500 M⁻¹ s⁻¹,0.18 nM,38600,149,no binding (tested: 100 nM),0.02 nM,178000,1.08 nM,6060,1.24 nM,8840,EC50 [11]: 0.85 nM; Maximum mean fluorescence intensity [11]: 3940; EC50 [12]: 0.71 nM; Maximum mean fluorescence intensity [12]: 5660
B4,0.47 nM,5550,0.69 nM,6240,16.1 nM,0.00178 s⁻¹,110000 M⁻¹ s⁻¹,50.2 nM,0.00309 s⁻¹,61600 M⁻¹ s⁻¹,0.3 nM,48200,143,no binding (tested: 100 nM),0.03 nM,159000,1.35 nM,6500,1.74 nM,9480,EC50 [7]: 0.76 nM; Maximum mean fluorescence intensity [7]: 2420; EC50 [11]: 0.39 nM; Maximum mean fluorescence intensity [11]: 5140; EC50 [12]: 0.64 nM; Maximum mean fluorescence intensity [12]: 7640

# Reference: US20240343811A1 (SHANDONG SIMCERE BIOPHARMACUTICAL, published 2024)
